Measured values as given in patent US20070298445, “Cancer Therapeutic” (published 2007).

Target: ZNF306 (UniProt Q9BRR0 Q9BRR0:1-538)
Experiment: cell_activity; luciferase induction, duplicate tandem copies upstream of minimal tk promoter
Settings: tags: expression plasmid or cDNA in colon cancer cells

Chain of ZNF306 (Q9BRR0 whole entry, one chain of several): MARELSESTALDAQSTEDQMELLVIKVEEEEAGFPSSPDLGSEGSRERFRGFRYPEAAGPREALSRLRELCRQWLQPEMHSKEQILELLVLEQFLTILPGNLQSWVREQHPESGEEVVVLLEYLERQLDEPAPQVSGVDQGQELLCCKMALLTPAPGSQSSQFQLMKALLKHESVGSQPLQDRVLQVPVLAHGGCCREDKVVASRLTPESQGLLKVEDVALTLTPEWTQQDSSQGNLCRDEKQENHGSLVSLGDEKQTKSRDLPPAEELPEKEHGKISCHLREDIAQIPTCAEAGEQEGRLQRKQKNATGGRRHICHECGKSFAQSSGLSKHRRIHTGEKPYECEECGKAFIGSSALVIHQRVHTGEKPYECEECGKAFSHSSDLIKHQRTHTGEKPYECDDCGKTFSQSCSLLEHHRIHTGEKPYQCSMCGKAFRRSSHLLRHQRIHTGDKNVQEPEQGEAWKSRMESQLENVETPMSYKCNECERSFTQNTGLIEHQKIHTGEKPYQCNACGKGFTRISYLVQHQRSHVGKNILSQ

B1: integrin beta4 intron 1 wt probe (dsDNA)
DNA 1: TGAGGGG
DNA 2: CCCCTCA
activity: 6 fold
